Assay results taken from patent publication US20210403514A1 (NATIONAL INSTITUTE FOR BIOTECHNOLOGY IN THE NEGEV, published 2021).

Key:
[1] = target: T1, soluble human c-FMS receptor (extracellular domains, residues Met1-Glu512) (Sino Biological) (human, UniProt P07333 20-512); experiment: SPR (ProteOn XPR36), M-CSF protein immobilised, c-FMS (Met1-Glu512) 4.375-70 nM as analyte, equilibrium, N=3
T1 construct: range 1-512; Analyte in both SPR experiments; The printed range starts at Met1, so it includes the signal peptide; also called human c-FMS soluble proteins

[2] = target: the molecule itself; experiment: SAXS, radius of gyration against protein concentration; oligomeric state (homodimer) in solution
[3] = target: T1, soluble human c-FMS receptor …; experiment: SPR (ProteOn XPR36), M-CSF protein immobilised, c-FMS (Met1-Glu512) as analyte, equilibrium, N=3
[4] = target: the molecule itself; experiment: BS3 chemical crosslinking, SDS-PAGE, InstantBlue stain; self-association (homodimer)
[5] = target: T2, soluble human αvβ3 integrin (human, UniProt P06756 31-992; P05106 27-718); experiment: SPR (ProteOn XPR36); variant immobilized by amine coupling, soluble αvβ3 integrin flowed at 12.5 to 200 nM; panel assigned to M-CSFM although the legend prints '9A and 9E'
T2 construct: R&D Systems for yeast display; also called integrin αvβ3; recombinant αvβ3 integrin

[6] = target: T1, soluble human c-FMS receptor …; experiment: SPR (ProteOn XPR36), M-CSF protein immobilised, c-FMS 0-200 nM as analyte, equilibrium
[7] = target: T3, murine c-FMS on bone marrow derived monocytes (BMMs) (mouse, UniProt P09581 20-977); experiment: cell-based or functional assay
T3 sequence (looked up): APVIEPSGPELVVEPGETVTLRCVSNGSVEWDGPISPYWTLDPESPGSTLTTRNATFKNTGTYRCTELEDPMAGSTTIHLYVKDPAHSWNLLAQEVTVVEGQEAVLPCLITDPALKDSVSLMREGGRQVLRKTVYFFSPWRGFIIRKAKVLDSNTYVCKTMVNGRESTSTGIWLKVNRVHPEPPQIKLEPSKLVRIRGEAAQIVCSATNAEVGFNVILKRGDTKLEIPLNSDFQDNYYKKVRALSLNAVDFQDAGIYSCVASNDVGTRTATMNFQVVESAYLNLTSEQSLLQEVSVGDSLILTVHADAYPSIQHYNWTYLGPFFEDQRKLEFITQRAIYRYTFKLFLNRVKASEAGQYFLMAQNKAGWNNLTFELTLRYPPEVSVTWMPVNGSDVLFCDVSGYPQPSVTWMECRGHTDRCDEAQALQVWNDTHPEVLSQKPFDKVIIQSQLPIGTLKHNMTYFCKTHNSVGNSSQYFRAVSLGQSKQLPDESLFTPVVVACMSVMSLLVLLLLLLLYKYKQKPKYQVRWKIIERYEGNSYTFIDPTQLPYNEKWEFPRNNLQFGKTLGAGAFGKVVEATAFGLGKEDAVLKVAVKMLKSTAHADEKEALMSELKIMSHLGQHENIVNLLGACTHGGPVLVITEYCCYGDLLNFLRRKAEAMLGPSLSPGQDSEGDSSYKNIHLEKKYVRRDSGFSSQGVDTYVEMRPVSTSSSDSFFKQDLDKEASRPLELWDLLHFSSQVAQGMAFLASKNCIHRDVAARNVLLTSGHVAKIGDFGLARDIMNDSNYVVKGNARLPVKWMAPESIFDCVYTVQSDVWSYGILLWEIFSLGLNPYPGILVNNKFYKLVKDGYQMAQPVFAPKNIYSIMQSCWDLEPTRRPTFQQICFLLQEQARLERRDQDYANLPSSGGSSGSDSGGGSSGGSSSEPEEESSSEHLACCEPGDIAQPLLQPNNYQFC

[8] = target: T4, soluble Fc conjugated human c-FMS (R&D systems) (human, UniProt P07333 20-512); experiment: yeast surface display, flow cytometry; soluble c-FMS-Fc titrated from 0.5 to 2000 nM
T4 construct: Bought reagent; Used in all yeast display experiments; also called c-FMS-Fc; c-FMS-Fc recombinant protein; not shown: Fc (detected with goat anti human Fc)

[9] = target: T4, soluble Fc conjugated human c-FMS (R&D …); experiment: yeast surface display flow cytometry; displayed M-CSFM titrated with c-FMS-Fc (0.5 nM to 2000 nM); apparent KD
[10] = target: T1, soluble human c-FMS receptor …; experiment: SPR (ProteOn XPR36), variant immobilised, c-FMS 0-200 nM as analyte, equilibrium
[11] = target: T5, integrin α4β7 (human, UniProt P13612 34-977; P26010 20-723, limits assumed); experiment: SPR (ProteOn XPR36); α4β7 integrin immobilized, variant flowed at 1 µM
T5 construct: Immobilised on the SPR chip

[12] = target: T6, integrin α3β1 (human, UniProt P26006 33-991; P05556 21-728, limits assumed); experiment: SPR (ProteOn XPR36); α3β1 integrin immobilized, variant flowed at 1 µM
T6 construct: Immobilised on the SPR chip

[13] = target: the molecule itself; experiment: BS3 chemical crosslinking, denaturing SDS-PAGE, Coomassie stain; self-association (homodimer)
[14] = target: T2, soluble human αvβ3 integrin; experiment: SPR (ProteOn XPR36), variant immobilised, αvβ3 integrin 0-200 nM as analyte, equilibrium
[15] = target: T7, integrin α5β1 (human, UniProt P08648 42-995; P05556 21-728, limits assumed); experiment: SPR (ProteOn XPR36); α5β1 integrin immobilized, variant flowed at 1 µM
T7 construct: Immobilised on the SPR chip

[16] = target: the molecule itself; experiment: BS3 chemical crosslinking, denaturing SDS-PAGE, Coomassie stain; self-association (homodimer); remark: listed apart in the source
[17] = target: T2, soluble human αvβ3 integrin; experiment: SPR (ProteOn XPR36), M-CSFαvβ3 immobilised, αvβ3 integrin 0-200 nM as analyte, equilibrium

T5 sequence (P13612 34-977 limits assumed, chain 1 of 2): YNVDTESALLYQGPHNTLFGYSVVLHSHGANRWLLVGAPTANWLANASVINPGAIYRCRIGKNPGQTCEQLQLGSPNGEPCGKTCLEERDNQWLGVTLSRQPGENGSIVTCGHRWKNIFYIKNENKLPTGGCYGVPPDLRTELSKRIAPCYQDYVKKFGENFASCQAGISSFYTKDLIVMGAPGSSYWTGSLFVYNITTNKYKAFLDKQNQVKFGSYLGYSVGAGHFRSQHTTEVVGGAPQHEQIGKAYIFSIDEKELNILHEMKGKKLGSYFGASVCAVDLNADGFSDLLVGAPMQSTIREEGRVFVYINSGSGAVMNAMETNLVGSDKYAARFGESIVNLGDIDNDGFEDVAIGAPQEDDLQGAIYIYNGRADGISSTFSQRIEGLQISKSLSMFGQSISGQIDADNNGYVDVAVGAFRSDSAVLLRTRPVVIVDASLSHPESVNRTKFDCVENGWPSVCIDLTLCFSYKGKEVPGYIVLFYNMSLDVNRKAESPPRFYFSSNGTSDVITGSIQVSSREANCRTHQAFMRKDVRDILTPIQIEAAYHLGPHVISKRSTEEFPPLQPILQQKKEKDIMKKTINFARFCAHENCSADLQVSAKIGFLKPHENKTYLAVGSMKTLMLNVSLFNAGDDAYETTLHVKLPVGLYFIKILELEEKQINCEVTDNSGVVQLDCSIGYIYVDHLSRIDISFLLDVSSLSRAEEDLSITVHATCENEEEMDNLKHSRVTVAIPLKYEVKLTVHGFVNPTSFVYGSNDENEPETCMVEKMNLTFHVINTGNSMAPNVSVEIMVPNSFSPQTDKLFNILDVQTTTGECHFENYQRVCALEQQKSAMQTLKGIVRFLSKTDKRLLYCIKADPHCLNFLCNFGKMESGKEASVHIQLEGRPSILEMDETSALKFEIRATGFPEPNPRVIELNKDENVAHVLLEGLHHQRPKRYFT
T5 sequence (P26010 20-723 limits assumed, chain 2 of 2): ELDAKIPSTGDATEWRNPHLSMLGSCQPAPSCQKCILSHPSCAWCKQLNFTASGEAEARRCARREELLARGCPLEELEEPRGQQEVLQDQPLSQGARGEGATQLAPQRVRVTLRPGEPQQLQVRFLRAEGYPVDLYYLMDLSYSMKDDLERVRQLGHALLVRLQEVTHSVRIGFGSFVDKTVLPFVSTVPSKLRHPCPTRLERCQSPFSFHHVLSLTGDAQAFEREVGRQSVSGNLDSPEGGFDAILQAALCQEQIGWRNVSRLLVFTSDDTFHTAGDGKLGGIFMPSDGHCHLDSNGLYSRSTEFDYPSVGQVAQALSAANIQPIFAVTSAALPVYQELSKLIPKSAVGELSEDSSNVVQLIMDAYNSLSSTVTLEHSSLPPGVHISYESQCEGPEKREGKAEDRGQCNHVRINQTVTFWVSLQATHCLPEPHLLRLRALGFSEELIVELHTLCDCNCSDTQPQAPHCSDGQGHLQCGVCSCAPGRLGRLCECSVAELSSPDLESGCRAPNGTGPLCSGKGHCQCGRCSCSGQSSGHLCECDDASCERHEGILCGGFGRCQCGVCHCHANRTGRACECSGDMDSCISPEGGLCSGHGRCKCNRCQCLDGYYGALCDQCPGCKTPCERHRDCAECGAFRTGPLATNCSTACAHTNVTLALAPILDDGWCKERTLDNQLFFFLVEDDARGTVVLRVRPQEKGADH
T7 sequence (P08648 42-995 limits assumed, chain 1 of 2): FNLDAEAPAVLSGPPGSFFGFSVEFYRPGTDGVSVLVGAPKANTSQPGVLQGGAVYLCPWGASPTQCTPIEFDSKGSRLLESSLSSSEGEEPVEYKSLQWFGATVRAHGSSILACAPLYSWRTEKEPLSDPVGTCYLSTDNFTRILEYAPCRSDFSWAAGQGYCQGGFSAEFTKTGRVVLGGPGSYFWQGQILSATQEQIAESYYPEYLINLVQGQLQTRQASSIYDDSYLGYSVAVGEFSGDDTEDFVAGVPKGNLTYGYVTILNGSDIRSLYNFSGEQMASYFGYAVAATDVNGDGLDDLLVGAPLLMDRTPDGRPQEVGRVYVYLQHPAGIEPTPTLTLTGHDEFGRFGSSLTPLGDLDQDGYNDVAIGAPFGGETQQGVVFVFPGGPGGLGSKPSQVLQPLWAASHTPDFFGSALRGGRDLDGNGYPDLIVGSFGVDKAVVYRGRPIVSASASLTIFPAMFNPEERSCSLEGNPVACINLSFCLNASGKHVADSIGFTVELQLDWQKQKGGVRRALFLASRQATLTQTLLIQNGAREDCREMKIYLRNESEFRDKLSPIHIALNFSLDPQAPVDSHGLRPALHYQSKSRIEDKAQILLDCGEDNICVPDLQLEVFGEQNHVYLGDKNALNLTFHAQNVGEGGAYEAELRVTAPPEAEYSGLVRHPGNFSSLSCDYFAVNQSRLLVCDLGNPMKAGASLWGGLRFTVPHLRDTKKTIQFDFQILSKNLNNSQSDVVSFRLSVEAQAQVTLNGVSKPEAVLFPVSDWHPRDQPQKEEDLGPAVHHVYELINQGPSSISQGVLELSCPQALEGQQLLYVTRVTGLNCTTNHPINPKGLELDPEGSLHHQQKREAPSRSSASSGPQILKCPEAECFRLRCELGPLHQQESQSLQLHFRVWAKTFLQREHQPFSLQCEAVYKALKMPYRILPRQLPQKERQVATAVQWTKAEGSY
T7 sequence (P05556 21-728 limits assumed, chain 2 of 2): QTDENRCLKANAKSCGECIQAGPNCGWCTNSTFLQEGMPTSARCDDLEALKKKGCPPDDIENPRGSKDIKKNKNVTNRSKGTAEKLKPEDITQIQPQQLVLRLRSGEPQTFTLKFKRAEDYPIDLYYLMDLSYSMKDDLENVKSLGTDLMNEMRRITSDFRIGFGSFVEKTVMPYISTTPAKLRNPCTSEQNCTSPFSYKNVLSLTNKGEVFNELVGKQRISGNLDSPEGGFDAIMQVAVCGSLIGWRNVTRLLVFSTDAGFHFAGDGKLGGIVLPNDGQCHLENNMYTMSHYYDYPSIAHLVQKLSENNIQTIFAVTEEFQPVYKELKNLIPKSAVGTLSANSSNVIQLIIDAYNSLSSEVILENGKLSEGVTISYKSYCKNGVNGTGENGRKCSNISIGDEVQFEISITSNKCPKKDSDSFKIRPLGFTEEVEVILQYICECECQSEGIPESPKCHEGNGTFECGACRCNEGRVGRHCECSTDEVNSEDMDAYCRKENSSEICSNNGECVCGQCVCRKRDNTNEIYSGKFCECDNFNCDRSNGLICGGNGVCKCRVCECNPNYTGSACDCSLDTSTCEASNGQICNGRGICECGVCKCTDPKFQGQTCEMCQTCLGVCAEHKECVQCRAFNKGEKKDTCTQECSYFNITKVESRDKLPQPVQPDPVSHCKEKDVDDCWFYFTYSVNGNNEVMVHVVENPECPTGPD
T6 sequence (P26006 33-991 limits assumed, chain 1 of 2): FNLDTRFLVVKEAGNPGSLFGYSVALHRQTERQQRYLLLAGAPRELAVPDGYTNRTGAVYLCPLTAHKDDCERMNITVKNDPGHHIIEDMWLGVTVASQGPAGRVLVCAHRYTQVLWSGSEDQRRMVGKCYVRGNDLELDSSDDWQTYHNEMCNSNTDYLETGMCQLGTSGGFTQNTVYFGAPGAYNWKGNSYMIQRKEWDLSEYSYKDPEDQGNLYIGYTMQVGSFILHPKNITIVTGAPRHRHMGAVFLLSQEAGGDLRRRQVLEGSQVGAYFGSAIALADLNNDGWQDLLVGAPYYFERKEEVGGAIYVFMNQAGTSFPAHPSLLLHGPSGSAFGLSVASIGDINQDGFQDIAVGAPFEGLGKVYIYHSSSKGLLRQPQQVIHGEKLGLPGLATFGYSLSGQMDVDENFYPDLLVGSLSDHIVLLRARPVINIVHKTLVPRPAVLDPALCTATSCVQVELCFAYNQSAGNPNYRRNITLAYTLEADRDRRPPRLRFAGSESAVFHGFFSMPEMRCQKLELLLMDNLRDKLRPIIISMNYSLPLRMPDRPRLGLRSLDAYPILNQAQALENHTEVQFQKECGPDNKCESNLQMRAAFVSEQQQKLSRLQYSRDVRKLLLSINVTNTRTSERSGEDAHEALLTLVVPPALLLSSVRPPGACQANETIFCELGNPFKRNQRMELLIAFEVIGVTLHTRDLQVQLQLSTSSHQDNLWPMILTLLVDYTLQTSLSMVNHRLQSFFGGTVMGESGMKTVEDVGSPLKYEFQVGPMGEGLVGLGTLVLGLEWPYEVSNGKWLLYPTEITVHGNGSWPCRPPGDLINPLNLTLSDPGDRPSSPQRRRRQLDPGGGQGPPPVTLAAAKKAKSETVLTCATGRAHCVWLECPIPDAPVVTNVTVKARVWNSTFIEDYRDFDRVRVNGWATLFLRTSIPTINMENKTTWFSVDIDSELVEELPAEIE
T6 sequence (P05556 21-728 limits assumed, chain 2 of 2): as the sequence (P05556 21-728 limits assumed, chain 2 of 2) above
T1 sequence (P07333 20-512 limits assumed): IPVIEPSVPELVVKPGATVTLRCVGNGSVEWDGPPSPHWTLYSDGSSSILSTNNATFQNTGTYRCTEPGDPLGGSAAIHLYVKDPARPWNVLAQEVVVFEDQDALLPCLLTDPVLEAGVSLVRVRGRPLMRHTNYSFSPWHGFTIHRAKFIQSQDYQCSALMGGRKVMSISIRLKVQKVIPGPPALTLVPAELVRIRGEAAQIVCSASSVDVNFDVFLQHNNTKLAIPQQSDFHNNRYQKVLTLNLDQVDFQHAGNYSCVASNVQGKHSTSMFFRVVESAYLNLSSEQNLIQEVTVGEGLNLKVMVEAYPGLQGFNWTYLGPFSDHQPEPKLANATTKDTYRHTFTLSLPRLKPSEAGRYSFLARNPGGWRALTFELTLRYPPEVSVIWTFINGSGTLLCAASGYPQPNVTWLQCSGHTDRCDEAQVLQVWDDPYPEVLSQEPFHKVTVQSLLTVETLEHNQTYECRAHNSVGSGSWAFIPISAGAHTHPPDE
T4 sequence (P07333 20-512 limits assumed): as above

B1: human wild-type M-CSF (M-CSFWT) (ligand)
chain: EEVSEYCSHMIGSGHLQSLQRLIDSQMETSCQITFEFVDQEQLKDPVCYLKKAFLLVQDIMEDTMRFRDNTPNAIAIVQLQELSLRLKSCFTKDYEEHDKACVRTFYETPLQLLEKVKNVFNETKNLLDKDWNIFSKNCNNSFAECSSQGHERQSEGS
notes: also called human M-CSFWT
[1]
  Kd: 0.0251 µM
[2]
  binding result: binds

B2: M-CSFC31S,M27R (designed binder)
chain: EEVSEYCSHMIGSGHLQSLQRLIDSQRETSSQITFEFVDQEQLKDPVCYLKKAFLLVQDIMEDTMRFRDNTPNAIAIVQLQELSLRLKSCFTKDYEEHDKACVRTFYETPLQLLEKVKNVFNETKNLLDKDWNIFSKNCNNSFAECSSQGHERQSEGS
notes: monomer; Purified from Pichia pastoris GS115; also called M-CSFM,M27R; M-CSF double mutant
[3]
  Kd: 0.0615 µM
[4]
  binding result: no binding

B3: M-CSFM, purified soluble, non-glycosylated (M-CSFC31S) (ligand)
chain: EEVSEYCSHMIGSGHLQSLQRLIDSQMETSSQITFEFVDQEQLKDPVCYLKKAFLLVQDIMEDTMRFRDNTPNAIAIVQLQELSLRLKSCFTKDYEEHDKACVRTFYETPLQLLEKVKNVFNETKNLLDKDWNIFSKNCNNSFAECSSQGHERQSEGS
modifications: N-glycans removed with Endo HF (non-glycosylated)
notes: Expressed in Pichia pastoris GS115; Forms non-covalent dimers; also called non-glycosylated M-CSFM; M-CSF monomer; not shown: FLAG tag at the N-terminus of the cloning site (pPIC9K); 6xHis tag at the C-terminus of the cloning site
[5]
  binding result: no binding (tested: 200 nM)
[6]
  Kd: 0.0316 µM
[7]
  c-FMS phosphorylation at the peak concentration, fold against M-CSFWT: 10 fold
  c-FMS phosphorylation at the peak concentration, fold against the positive control (0.5 nM murine M-CSF): 40 fold
[4]
  binding result: binds

B4: glycosylated M-CSFM, purified soluble (ligand)
chain: EEVSEYCSHMIGSGHLQSLQRLIDSQMETSSQITFEFVDQEQLKDPVCYLKKAFLLVQDIMEDTMRFRDNTPNAIAIVQLQELSLRLKSCFTKDYEEHDKACVRTFYETPLQLLEKVKNVFNETKNLLDKDWNIFSKNCNNSFAECSSQGHERQSEGS
modifications: N-glycosylated (two glycosylation sites in positions 122 and 140)
notes: Pichia pastoris product without Endo HF treatment; not shown: FLAG tag at the N-terminus of the cloning site (pPIC9K); 6xHis tag at the C-terminus of the cloning site
[6]
  Kd: 0.0426 µM

B5: M-CSFM displayed on the yeast surface (YSD M-CSFM) (ligand)
chain: EEVSEYCSHMIGSGHLQSLQRLIDSQMETSSQITFEFVDQEQLKDPVCYLKKAFLLVQDIMEDTMRFRDNTPNAIAIVQLQELSLRLKSCFTKDYEEHDKACVRTFYETPLQLLEKVKNVFNETKNLLDKDWNIFSKNCNNSFAECSSQGHERQSEGS
notes: also called M-CSF monomer; not shown: yeast surface display fusion partner (pCTCON construct on the S. cerevisiae cell wall, with c-myc tag)
[8]
  EC50 (read off the curve): ~0.02 µM
[9]
  Kd: 0.02 µM

B6: M-CSFRGD variant 4.22, purified soluble, non-glycosylated (designed binder)
chain: EEVSEYCSHMIGSGHLQSLQRLIDQTSRGDSPSITFEFVDQEQLKDPVCYLKKAFLLVQDIMEDTMRFRDNTPNAIAIVQLQELSLRLKSCFTKDYEEHDKACVRTFYETPLQLLEKVKNVFNETKNLLDKDWNIFSKNCNNSFAECSSQGHERQSEGS
modifications: N-glycans removed with Endo HF (non-glycosylated). Labelled with DyLight 488 NHS ester on amines for the cell binding assays. Amine-coupled to the chip for SPR.
notes: Pichia pastoris product; 21.7 kDa by MS; not shown: N-terminal FLAG tag, C-terminal 6xHis tag and the vector junction residues (pPIC9K cloning site)
[10]
  Kd: 0.152 µM
[11]
  binding result: no binding (tested: 1 µM)
[12]
  binding result: no binding (tested: 1 µM)
[13]
  binding result: no binding
[14]
  Kd: 0.199 µM
[15]
  binding result: no binding (tested: 1 µM)

B7: M-CSFRGD variant 5.6, purified soluble, non-glycosylated (designed binder)
chain: EEVSEYCSHMIGSGHLQSLQRLIDTYPRGDMCSITFEFVDQEQLKDPVCYLKKAFLLVQDIMEDTMRFRDNTPNAIAIVQLQELSLRLKSCFTKDYEEHDKACVRTFYETPLQLLEKVKNVFNETKNLLDKDWNIFSKNCNNSFAECSSQGHERQSEGS
modifications: N-glycans removed with Endo HF (non-glycosylated). Labelled with DyLight 488 NHS ester on amines for the cell binding assays. Amine-coupled to the chip for SPR.
notes: Pichia pastoris product; 22 kDa by MS; also called M-CSFRGD 5.6; M-CSF5.6; not shown: N-terminal FLAG tag, C-terminal 6xHis tag and the vector junction residues (pPIC9K cloning site)
[10]
  Kd: 0.096 µM
[11]
  binding result: no binding (tested: 1 µM)
[16]
  binding result: no binding
[12]
  binding result: no binding (tested: 1 µM)
[14]
  Kd: 0.245 µM
[15]
  binding result: no binding (tested: 1 µM)

B8: M-CSFRGD variant 4.24, purified soluble, non-glycosylated (designed binder)
chain: EEVSEYCSHMIGSGHLQSLQRLIDSQMETSSQITFEFVDQEQLKDPVCYLKKAFLLVQDIMEDEPVRGDNINPNAIAIVQLQELSLRLKSCFTKDYEEHDKACVRTFYETPLQLLEKVKNVFNETKNLLDKDWNIFSKNCNNSFAECSSQGHERQSEGS
modifications: N-glycans removed with Endo HF (non-glycosylated)
notes: not shown: FLAG tag at the N-terminus of the cloning site (pPIC9K); 6xHis tag at the C-terminus of the cloning site
[10]
  Kd: 0.219 µM
[11]
  binding result: no binding (tested: 1 µM)
[16]
  binding result: no binding
[12]
  binding result: no binding (tested: 1 µM)
[14]
  Kd: 0.108 µM
[15]
  binding result: no binding (tested: 1 µM)

B9: M-CSFαvβ3 (variant 4.22 with histidine to alanine in positions 9 and 15), purified soluble (designed binder, not shown: small tags and cut ends)
chain: EEVSEYCSAMIGSGALQSLQRLIDQTSRGDSPSITFEFVDQEQLKDPVCYLKKAFLLVQDIMEDTMRFRDNTPNAIAIVQLQELSLRLKSCFTKDYEEHDKACVRTFYETPLQLLEKVKNVFNETKNLLDKDWNIFSKNCNNSFAECSSQGHERQSEGS
modifications: Expressed in Pichia with an N-terminal FLAG tag and a C-terminal 6xHis tag, neither of which is in the letters. N-glycans were removed with Endo HF.
[17]
  Kd: 0.231 µM
